# Patent publication US10239925B2, “Peptides and combination of peptides for use in immunotherapy against ovarian cancer and other cancers” (IMMATICS BIOTECHNOLOGIES GMBH, priority 2015, dated 2019)
# Biological target: HLA-A*02:01 (Homo sapiens, UniProt P04439, D140Y/D185E/D98H/E176V/E277Q/G131W/G231S/I119V/I121R/I166T/I218V/L300P/L318F/N151K/N90K/P208A/P217A/Q86G/Q94H/R138H/R169H/T345S)
# Experiment: MHC binding assay (UV-ligand exchange, anti-β2m ELISA, peptide exchange yield)
# Conditions: binding to HLA-A*02:01
# In short: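 Peptide-MHC complexes formed by UV-ligand exchange, cleaving a UV-sensitive placeholder peptide in favour of the test peptide. Exchange yield measured by ELISA: monomers diluted 100-fold onto streptavidin-coated plates, 1 h 37 °C, detected with 2 ug/ml HRP anti-β2m and TMB, absorbance at 450 nm.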
row,Substance,"Peptide exchange (MHC class I binding score, peptide exchange yield)"
1,545 (LLADLLHNV; listed as Homo sapiens) [compound 545],“+++” (>50 = +++)
2,548 (ALWENPESGEL; listed as Homo sapiens) [compound 548],“++” (>20% = ++)
3,549 (AMLENASDIKL; listed as Homo sapiens) [compound 549],“+++” (>50 = +++)
4,550 (FLYDEIEAEVNL; listed as Homo sapiens) [compound 550],“+++” (>50 = +++)
5,554 (LLMPSSEDLLL; listed as Homo sapiens) [compound 554],“+++” (>50 = +++)
6,556 (FLTDLEDLTL; listed as Homo sapiens) [compound 556],“+++” (>50 = +++)
7,557 (KLYDDMIRL; listed as Homo sapiens) [compound 557],“+++” (>50 = +++)
8,559 (VTVPPGPSL; listed as Homo sapiens) [compound 559],“++” (>20% = ++)
9,560 (ALWDIETGQQTTT; listed as Homo sapiens) [compound 560],“+++” (>50 = +++)
10,561 (YLQLTQSEL; listed as Homo sapiens) [compound 561],“+++” (>50 = +++)
11,562 (YLEELPEKLKL; listed as Homo sapiens) [compound 562],“+++” (>50 = +++)
12,563 (WLLPYNGVTV; listed as Homo sapiens) [compound 563],“+++” (>50 = +++)
13,564 (TVTNAVVTV; listed as Homo sapiens) [compound 564],“+++” (>50 = +++)
14,565 (ALQETPTSV; listed as Homo sapiens) [compound 565],“++” (>20% = ++)
15,567 (SLLPLDDIVRV; listed as Homo sapiens) [compound 567],“+++” (>50 = +++)
16,570 (ALANQIPTV; listed as Homo sapiens) [compound 570],“++” (>20% = ++)
17,571 (LLLTTIPQI; listed as Homo sapiens) [compound 571],“+++” (>50 = +++)

# More lines, now with the values ahead:
row,"Peptide exchange (MHC class I binding score, peptide exchange yield)",Substance
1,“+++” (>50 = +++),546 (VMIAGKVAVV; listed as Homo sapiens) [compound 546]
2,“+++” (>50 = +++),547 (TLDITPHTV; listed as Homo sapiens) [compound 547]
3,“+++” (>50 = +++),551 (KLYESLLPFA; listed as Homo sapiens) [compound 551]
4,“+++” (>50 = +++),552 (GLLDLPFRVGV; listed as Homo sapiens) [compound 552]
5,“+++” (>50 = +++),553 (SLLNQDLHWSL; listed as Homo sapiens) [compound 553]
6,“+++” (>50 = +++),555 (YVLEGLKSV; listed as Homo sapiens) [compound 555]
7,“+++” (>50 = +++),558 (GLLENIPRV; listed as Homo sapiens) [compound 558]
8,“++” (>20% = ++),566 (VIADGGIQNV; listed as Homo sapiens) [compound 566]
9,“++++” (>75% = ++++),568 (TLYDIAHTPGV; listed as Homo sapiens) [compound 568]
10,“+++” (>50 = +++),569 (KLVDRTWTL; listed as Homo sapiens) [compound 569]
